Results on one molecule are retold here after CN112375147A (THE THIRD AFFILIATED HOSPITAL NAVAL MEDICAL UNIV OF PLA, dated 2021).

The target of this test is T1, YKL-40 (native, secreted); in serum of patients with hepatocellular carcinoma lung metastasis and in culture … (human, UniProt P36222 22-383).
T1 construct: mature; Endogenous secreted protein, not a recombinant construct; also called Chi3l1; BRP39
Nature of the test: ELISA of YKL-40 left detectable in patient serum (1:100) after overnight incubation at 4 C with 10 ug/mL antibody, IgG control.

T1 sequence (P36222 22-383): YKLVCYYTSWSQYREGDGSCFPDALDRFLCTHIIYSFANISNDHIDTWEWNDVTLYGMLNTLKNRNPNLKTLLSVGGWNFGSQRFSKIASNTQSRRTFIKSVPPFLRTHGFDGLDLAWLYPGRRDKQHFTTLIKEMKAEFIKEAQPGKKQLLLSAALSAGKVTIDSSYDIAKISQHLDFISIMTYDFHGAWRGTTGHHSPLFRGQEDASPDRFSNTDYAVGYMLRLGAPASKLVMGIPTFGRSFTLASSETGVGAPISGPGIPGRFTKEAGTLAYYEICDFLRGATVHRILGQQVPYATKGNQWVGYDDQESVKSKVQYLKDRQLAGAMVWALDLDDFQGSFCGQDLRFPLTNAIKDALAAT

B1: 抗人YKL-40中和性单克隆抗体 (antibody, V domains shown)
VH: EVKLEESGGGLVQPGGSMKLSCAASGFTLSDAWMDWVRQSPEKGLEWVAEIRSKGNNHTPYYAESVKGRFTISRDDSRNSVYLQMNTLRAEDTGTYYCTRTVYYYGSSSCAMDYWGQGTSVTVSS
VL: DIQMTQSPASLSASVGETVTITCGASENIYGALNWYQRKQGKSPQLLIFGASNLADDMSSRFSGSGSGRQYSLKISSLHPDDVATYFCQNVLRTPWTFGGGTNLEIK
notes: Monoclonal antibody from mouse immunisation (hybridoma Hyb-NAY); also called N-AY; YKL-40中和性单抗
Take B1: the binding result is “binds”.
